The text below walks through data of patent US20260217852A1 (ZONHON BIOPHARMA INSTITUTE, published 2026).

The target of assay [1] is T1, CD26 on cells (786-0, OS-RC-2, UT16, NCI-H226 tumor cells; PBMCs) (human, UniProt P27487 1-766).
T1 construct: whole, on cells; The background says that CD26 commonly exists as a homodimer; also called CD26 target on tumor cells; CD26 on PBMCs
Kind of assay: flow cytometry, PBMCs in a mixed system with 786-0 cells, antibody at 0.3 ug/mL.

The target of a further assay is CD3 protein. Kind of assay: BLI (ForteBio), biotinylated CD3 protein on SA biosensors, antibody at 500 nM. As to the method: CD3 protein was first biotinylated using EZ-Link NHS-PEG12-Biotin, and the biotinylated protein was immobilized on SA biosensors. The biosensors were then equilibrated in 1× Kinetics Buffer, followed by incubation with the humanized bispecific antibody solution to allow binding. The concentration of the humanized bispecific antibody solution was 500 nM. Afterward, the biosensors were placed in 1× Kinetics Buffer for dissociation. Data were analyzed using Fortebio Data Analysis 8.0 software to calculate the affinity constant values.

T1 sequence (P27487 whole entry): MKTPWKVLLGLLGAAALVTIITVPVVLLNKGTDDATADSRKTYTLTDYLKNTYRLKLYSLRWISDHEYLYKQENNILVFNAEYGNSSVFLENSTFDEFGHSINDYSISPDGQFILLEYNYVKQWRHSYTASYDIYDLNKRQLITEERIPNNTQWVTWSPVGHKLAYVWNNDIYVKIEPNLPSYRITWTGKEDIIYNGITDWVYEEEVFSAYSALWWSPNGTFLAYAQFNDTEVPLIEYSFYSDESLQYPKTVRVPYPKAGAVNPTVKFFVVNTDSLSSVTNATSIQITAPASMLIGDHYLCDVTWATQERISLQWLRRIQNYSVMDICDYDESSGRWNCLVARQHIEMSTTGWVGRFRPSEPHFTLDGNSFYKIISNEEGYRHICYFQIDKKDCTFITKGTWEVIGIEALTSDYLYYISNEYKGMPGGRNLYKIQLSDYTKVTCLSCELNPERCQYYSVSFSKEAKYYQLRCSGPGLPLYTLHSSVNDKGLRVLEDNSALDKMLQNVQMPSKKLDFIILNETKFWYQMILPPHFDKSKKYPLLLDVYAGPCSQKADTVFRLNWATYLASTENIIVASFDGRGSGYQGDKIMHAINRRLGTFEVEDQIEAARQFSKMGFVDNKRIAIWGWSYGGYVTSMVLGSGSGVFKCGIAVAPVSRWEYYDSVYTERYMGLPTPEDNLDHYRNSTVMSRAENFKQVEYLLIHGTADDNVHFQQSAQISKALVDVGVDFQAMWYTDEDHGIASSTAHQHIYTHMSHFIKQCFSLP

B1: full-length humanized anti-CD26 antibody 21G428-429 (antibody, human IgG1, kappa, V domains shown)
VH: EVQLVQSGAELVKPGASVKLSCAASGFNIKDTYIYWVRQAPGQGLEWVGRIEPMNGNTKYDPKFQGRFTMTANTSKNTAYLQLSSLRSEDTAVYYCSRGGWLLLYVMDYWGQGTLVTVSS
VL: DIVMTQSPSSLSVTPGERVSISCRSDKSLLHSNGNTYLYWFLQKPGQSPQVLIYRMSNLASGVPDRFSGSGSGTDFTLTISRVEAEDVGVYYCFQQLEYPYTFGQGTKLEIKR
notes: Derived from mouse antibody No. 62; About 150 kDa
In the case of B1, the binding result in assay [1] is recorded as “binds”.

B2: humanized CD26-CD3 BiTE bispecific antibody 19G300 (bispecific antibody)
scFv: DIQMTQSPSSLSASPGDRVTISCRASQDIGNFLTWYQQKPGQAPKLLIYYRSRLHSGVPSRFSGSGSGTDYTLTISSLEPEDFATYYCQQDNTLPWTFGQGTKVEIKGGGGSGGGGSGGGGSEVQLVESGGGLVQPGGSLRLSCAASGFTFTNYYMSWVRQAPGKGLEWVAFIRDKANGYTTEYSASVKGRFTISRDNSKNTLYLQMNSLRAEDTAVYYCARVLRYLGYNFDYWGQGTLVTVSSGGGGSDVQLVQSGAEVKKPGASVKVSCKASGYTFTRYTMHWVRQAPGQGLEWIGYINPSRGYTNYADSVKGRFTITTDKSTSTAYMELSSLRSEDTATYYCARYYDDHYCLDYWGQGTTVTVSSGGGGSGGGGSGGGGSDIVLTQSPATLSLSPGERATLSCRASQSVSYMNWYQQKPGKAPKRWIYDTSKVASGVPARFSGSGSGTDYSLTINSLEAEDAATYYCQQWSSNPLTFGGGTKVEIK
notes: Single chain of about 55 kDa; also called humanized bispecific antibody 19G300
As to B2, in the assay with CD3 protein, the affinity, expressed as Kd, was 1.61 nM; the koff turned out to be 0.000137 s⁻¹; the kon worked out at 84800 M⁻¹ s⁻¹.
